This note sets out measurements from the supplement of paper PMC11316812.

± gives the standard deviation of the averaged measurements.

The test system of data set [1] is hTERT-HMEC. Nature of the data set: percentage of EdU-negative (G0-arrested) nuclei per well, 72 h; higher = more G0 arrest. The settings on record: reference: sequence is the full UniProt precursor, the tested protein was the secreted form or ectodomain.
Data set [2] relates to MCF7. The description is as above. The note with it: reference: sequence is the full UniProt precursor, the tested protein was the secreted form or ectodomain.
The mark [3] stands for this setting: protein concentration 0.0225 µM.
Where [4] appears, read: protein concentration 0.01375 µM.
Where [5] appears, read: protein concentration 0.1375 µM.
[6] abbreviates: protein concentration 0.00575 µM.
The mark [7] stands for this setting: protein concentration 0.0575 µM.
[8] abbreviates: protein concentration 0.0175 µM.
The mark [9] stands for this setting: protein concentration 0.0134286 µM.
The mark [10] stands for this setting: protein concentration 0.134286 µM.
Setting [11] is: protein concentration 0.03125 µM.
The mark [12] stands for this setting: protein concentration 0.3125 µM.
The mark [13] stands for this setting: protein concentration 0.0257143 µM.
Where [14] appears, read: protein concentration 0.257143 µM.
[15] abbreviates: protein concentration 0.0242225 µM.
Setting [16] is: protein concentration 0.242225 µM.
[17] abbreviates: protein concentration 0.0165714 µM.
The mark [18] stands for this setting: protein concentration 0.165714 µM.
The mark [19] stands for this setting: protein concentration 0.0191429 µM.
Setting [20] is: protein concentration 0.191429 µM.
The mark [21] stands for this setting: protein concentration 0.00625 µM.
Where [22] appears, read: protein concentration 0.0625 µM.
Setting [23] is: protein concentration 0.0357143 µM.
Setting [24] is: protein concentration 0.357143 µM.
Where [25] appears, read: protein concentration 0.00525 µM.
[26] abbreviates: protein concentration 0.0525 µM.
Setting [27] is: protein concentration 0.012015 µM.
The mark [28] stands for this setting: protein concentration 0.12015 µM.
Setting [29] is: protein concentration 0.0111429 µM.
Where [30] appears, read: protein concentration 0.111429 µM.
[31] abbreviates: protein concentration 0.00725 µM.
The mark [32] stands for this setting: protein concentration 0.0725 µM.
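Note: secreted proteins added to cultured cells, EdU pulse at the end, nuclei found by Hoechst imaging, EdU status from nuclear versus surrounding ring intensity ratio, PBS as neutral control.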

Sequence of Q9ULB1 (chain, as listed by the source): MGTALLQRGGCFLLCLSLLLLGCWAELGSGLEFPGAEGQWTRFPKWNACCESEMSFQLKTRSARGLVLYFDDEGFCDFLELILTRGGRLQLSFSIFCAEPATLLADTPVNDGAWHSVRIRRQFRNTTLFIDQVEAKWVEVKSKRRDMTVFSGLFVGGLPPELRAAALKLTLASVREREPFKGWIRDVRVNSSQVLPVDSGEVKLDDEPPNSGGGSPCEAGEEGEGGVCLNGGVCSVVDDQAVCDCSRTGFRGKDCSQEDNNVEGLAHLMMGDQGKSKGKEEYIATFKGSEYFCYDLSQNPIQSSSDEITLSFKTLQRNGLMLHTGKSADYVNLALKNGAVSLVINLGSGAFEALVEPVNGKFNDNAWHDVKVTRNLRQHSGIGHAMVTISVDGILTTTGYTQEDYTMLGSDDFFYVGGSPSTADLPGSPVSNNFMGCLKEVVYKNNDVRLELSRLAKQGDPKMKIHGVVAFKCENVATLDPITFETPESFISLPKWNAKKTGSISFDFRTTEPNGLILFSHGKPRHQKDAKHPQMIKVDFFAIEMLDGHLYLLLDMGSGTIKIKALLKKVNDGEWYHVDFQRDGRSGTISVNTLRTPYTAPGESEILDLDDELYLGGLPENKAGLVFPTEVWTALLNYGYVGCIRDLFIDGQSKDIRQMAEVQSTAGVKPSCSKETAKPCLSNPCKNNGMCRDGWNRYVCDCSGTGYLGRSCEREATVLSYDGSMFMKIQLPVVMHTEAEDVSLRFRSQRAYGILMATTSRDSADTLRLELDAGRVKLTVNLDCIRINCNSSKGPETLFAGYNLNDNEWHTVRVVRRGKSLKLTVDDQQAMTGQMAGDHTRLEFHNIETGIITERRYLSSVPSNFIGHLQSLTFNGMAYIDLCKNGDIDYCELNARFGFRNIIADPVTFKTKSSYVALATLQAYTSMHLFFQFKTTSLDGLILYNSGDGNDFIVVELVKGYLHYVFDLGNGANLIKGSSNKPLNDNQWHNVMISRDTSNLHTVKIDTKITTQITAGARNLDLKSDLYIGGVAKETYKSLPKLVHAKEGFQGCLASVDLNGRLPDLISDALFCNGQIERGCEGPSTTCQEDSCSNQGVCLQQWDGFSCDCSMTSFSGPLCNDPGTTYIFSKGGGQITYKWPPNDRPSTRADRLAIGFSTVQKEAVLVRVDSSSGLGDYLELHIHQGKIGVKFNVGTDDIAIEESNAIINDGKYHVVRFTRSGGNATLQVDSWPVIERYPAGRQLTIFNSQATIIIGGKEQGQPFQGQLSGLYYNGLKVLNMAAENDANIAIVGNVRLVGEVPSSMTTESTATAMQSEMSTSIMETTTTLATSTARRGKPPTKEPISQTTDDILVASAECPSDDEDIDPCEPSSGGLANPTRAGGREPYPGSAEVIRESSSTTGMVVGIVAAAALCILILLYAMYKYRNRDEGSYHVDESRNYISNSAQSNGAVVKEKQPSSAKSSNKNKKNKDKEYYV
Sequence of Q9BZP6 (chain, as listed by the source): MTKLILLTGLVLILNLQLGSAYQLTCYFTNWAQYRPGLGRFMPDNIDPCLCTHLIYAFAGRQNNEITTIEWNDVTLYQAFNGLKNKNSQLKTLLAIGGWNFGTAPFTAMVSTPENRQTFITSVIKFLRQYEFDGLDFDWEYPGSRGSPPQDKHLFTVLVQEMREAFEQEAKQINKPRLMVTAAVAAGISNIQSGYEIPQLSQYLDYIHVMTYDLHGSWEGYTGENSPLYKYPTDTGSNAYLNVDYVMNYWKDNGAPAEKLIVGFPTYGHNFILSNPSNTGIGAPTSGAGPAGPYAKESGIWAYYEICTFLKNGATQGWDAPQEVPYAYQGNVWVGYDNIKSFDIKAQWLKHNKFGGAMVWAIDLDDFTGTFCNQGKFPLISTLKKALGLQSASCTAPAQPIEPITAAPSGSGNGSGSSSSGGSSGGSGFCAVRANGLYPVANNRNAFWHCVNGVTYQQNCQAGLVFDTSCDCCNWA
Sequence of Q6ZMJ2 (chain, as listed by the source): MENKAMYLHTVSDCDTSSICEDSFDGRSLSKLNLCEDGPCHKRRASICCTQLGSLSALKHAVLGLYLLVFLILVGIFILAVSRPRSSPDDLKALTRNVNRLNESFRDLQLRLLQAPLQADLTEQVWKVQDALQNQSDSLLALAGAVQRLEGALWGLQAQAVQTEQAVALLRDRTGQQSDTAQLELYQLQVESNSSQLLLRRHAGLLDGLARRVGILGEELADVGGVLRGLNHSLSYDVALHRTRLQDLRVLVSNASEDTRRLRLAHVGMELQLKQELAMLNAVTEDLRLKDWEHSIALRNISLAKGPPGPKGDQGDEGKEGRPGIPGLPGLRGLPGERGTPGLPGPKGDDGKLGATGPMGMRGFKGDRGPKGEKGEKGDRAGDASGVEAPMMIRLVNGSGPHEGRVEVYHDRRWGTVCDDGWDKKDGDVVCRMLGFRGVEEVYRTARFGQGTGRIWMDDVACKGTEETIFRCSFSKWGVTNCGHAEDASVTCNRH
Sequence of Q8IWL1 (chain, as listed by the source): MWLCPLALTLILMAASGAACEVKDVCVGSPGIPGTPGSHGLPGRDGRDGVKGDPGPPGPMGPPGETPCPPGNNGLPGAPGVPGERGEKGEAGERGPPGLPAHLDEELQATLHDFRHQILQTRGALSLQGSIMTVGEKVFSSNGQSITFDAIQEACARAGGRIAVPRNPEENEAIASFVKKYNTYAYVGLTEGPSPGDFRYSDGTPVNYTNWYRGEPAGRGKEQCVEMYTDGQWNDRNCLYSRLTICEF
Sequence of Q9UBP4 (chain, as listed by the source): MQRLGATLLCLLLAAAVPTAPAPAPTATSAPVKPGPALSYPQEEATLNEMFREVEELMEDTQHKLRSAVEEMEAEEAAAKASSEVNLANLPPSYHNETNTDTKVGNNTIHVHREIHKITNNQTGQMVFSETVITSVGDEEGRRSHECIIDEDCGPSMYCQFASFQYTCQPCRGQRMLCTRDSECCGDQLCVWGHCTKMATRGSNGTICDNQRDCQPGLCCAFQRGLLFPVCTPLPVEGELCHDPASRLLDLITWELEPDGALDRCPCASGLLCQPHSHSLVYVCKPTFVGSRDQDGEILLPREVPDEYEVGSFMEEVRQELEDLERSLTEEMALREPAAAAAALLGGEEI
Sequence of Q9BXJ3 (chain, as listed by the source): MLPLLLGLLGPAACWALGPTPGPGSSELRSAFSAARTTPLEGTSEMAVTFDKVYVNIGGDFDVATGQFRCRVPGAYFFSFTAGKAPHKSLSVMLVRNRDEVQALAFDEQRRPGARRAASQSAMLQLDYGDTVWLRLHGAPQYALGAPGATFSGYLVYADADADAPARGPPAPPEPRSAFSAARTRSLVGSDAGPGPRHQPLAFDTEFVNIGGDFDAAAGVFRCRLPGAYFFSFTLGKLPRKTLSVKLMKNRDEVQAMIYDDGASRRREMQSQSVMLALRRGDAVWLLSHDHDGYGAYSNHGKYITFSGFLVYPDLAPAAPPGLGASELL
Sequence of Q8IWL2 (chain, as listed by the source): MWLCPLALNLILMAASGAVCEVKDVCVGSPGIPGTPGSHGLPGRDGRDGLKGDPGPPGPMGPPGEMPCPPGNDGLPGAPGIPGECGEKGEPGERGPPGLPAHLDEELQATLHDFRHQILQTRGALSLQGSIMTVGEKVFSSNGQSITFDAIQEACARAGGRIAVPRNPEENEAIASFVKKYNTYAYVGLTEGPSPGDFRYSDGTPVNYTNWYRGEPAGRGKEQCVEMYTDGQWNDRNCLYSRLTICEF
Sequence of Q8WXD2 (chain, as listed by the source): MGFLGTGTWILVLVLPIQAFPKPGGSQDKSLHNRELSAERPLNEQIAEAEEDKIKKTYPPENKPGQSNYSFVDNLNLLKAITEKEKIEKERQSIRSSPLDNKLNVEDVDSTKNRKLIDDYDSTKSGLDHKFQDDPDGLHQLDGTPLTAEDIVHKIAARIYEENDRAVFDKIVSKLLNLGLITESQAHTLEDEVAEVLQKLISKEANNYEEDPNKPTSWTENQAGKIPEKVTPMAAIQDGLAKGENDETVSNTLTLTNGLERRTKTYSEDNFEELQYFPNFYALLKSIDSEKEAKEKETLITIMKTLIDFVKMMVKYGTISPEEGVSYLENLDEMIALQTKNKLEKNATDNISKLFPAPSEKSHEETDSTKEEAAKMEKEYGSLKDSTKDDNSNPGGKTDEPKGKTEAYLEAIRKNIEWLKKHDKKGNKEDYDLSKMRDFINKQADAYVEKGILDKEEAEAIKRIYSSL
Sequence of Q6UXN8 (chain, as listed by the source): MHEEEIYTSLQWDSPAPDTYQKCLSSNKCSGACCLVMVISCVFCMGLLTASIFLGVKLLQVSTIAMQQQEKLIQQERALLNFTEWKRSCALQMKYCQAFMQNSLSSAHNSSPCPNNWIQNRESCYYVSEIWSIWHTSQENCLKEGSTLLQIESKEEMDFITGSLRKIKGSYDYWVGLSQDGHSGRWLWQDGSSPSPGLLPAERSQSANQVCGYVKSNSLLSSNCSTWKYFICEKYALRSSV

Consider “MYTAIPQSGSPFPGSVQDPGLHVWRVEKLKPVPVAQENQGVFFSGDSYLVLHNGPEEVSHLHLWIGQQSSRDEQGACAVLAVHLNTLLGERPVQHREVQGNESDLFMSYFPRGLKYQEGGVESAFHKTSTGAPAAIKKLYQVKGKKNIRATERALNWDSFNTGDCFILDLGQNIFAWCGGKSNILERNKARDLALAIRDSERQGKAQVEIVTDGEEPAEMIQVLGPKPALKEGNPEEDLTADKANAQAAALYKVSDATGQMNLTKVADSSPFALELLISDDCFVLDNGLCGKIYIWKGRKANEKERQAALQVAEGFISRMQYAPNTQVEILPQGHESPIFKQFFKDWK”, for which the “percentage of EdU-negative” value in data set [1] (setting [3]) amounted to 5.3073 ± 0.0047%; in data set [1] (protein concentration 0.225 µM) it was 6.38 ± 0.68%; in data set [2] (setting [3]), 24.6 ± 2.7%; in data set [2] (protein concentration 0.225 µM) it was 26.02 ± 0.14%.
O60486: the “percentage of EdU-negative” value in data set [1] (setting [4]) is 4.77 ± 0.19%; in data set [1] (setting [5]) it was 10.8 ± 1%; in data set [2] (setting [4]) it was 23.37 ± 0.13%; in data set [2] (setting [5]) it was 26.9 ± 3%.
Turning to P0C0L4, the “percentage of EdU-negative” value in data set [1] (setting [6]) was 4.91 ± 0.16%; in data set [1] (setting [7]) it was 5.66 ± 0.38%; in data set [2] (setting [6]), 24.22 ± 0.12%; in data set [2] (setting [7]), 26.1 ± 0.47%.
Turning to P08572, the “percentage of EdU-negative” value in data set [1] (protein concentration 0.008 µM) is 4.54 ± 0.088%; in data set [1] (protein concentration 0.08 µM), 5.63 ± 0.46%; in data set [2] (protein concentration 0.008 µM) it was 24.1 ± 2.1%; in data set [2] (protein concentration 0.08 µM), 25.4 ± 0.67%.
As to P16144, the “percentage of EdU-negative” value in data set [1] (setting [8]) is 5.31 ± 0.28%; in data set [1] (protein concentration 0.175 µM) it was 5.29 ± 0.16%; in data set [2] (setting [8]) it was 24.1 ± 3.2%; in data set [2] (protein concentration 0.175 µM) it was 28.6 ± 0.6%.
For P20908, the “percentage of EdU-negative” value came out at 5.6 ± 0.17% in data set [1] (setting [9]), 25.8 ± 0.52% in data set [1] (setting [10]), 23.71 ± 0.12% in data set [2] (setting [9]) and 28.6 ± 1.4% in data set [2] (setting [10]).
Regarding P32881, the “percentage of EdU-negative” value in data set [1] (setting [11]) came out at 25.9 ± 1.2%; in data set [1] (setting [12]) it was 30.4 ± 4.1%; in data set [2] (setting [11]), 46 ± 0.63%; in data set [2] (setting [12]), 49.3 ± 0.71%.
As to Q6UXN8, the “percentage of EdU-negative” value in data set [1] (setting [3]) was found to be 4.27 ± 1%; in data set [1] (protein concentration 0.225 µM), 4.93 ± 0.51%; in data set [2] (setting [3]), 24.9 ± 2.2%; in data set [2] (protein concentration 0.225 µM), 25.2 ± 1.4%.
As for Q6ZMJ2, the “percentage of EdU-negative” value in data set [1] (setting [13]) was 4.96 ± 0.49%; in data set [1] (setting [14]), 8.139 ± 0.079%; in data set [2] (setting [13]), 24.7 ± 1.6%; in data set [2] (setting [14]), 24.2 ± 0.89%.
In the case of Q8IWL1, the “percentage of EdU-negative” value in data set [1] (setting [3]) stood at 5.29 ± 1.1%; in data set [1] (protein concentration 0.225 µM) it was 6.43 ± 1.3%; in data set [2] (setting [3]), 28.1 ± 0.35%; in data set [2] (protein concentration 0.225 µM), 26.4 ± 0.85%.
As for Q8IWL2, the “percentage of EdU-negative” value amounted to 5.36 ± 0.08% in data set [1] (setting [11]), 6.18 ± 0.17% in data set [1] (setting [12]), 25.4 ± 0.46% in data set [2] (setting [11]) and 26.7 ± 0.54% in data set [2] (setting [12]).
Consider Q8NBS9, for which the “percentage of EdU-negative” value in data set [1] (setting [15]) stood at 4.77 ± 0.42%; in data set [1] (setting [16]), 8.37 ± 0.54%; in data set [2] (setting [15]), 27.1 ± 0.28%; in data set [2] (setting [16]) it was 27.4 ± 0.94%.
Q8WXD2: the “percentage of EdU-negative” value in data set [1] (setting [17]) is 5.59 ± 0.58%; in data set [1] (setting [18]), 6.19 ± 0.24%; in data set [2] (setting [17]), 25.6 ± 3.6%; in data set [2] (setting [18]), 29.2 ± 1.7%.
Q9BXJ3: the “percentage of EdU-negative” value in data set [1] (setting [19]) was determined as 5.17 ± 0.79%; in data set [1] (setting [20]), 4.77 ± 0.24%; in data set [2] (setting [19]), 27.3 ± 3.6%; in data set [2] (setting [20]) it was 23.8 ± 1.1%.
Q9BXP8: the “percentage of EdU-negative” value in data set [1] (setting [21]) is 5.11 ± 0.6%; in data set [1] (setting [22]), 6.47 ± 0.67%; in data set [2] (setting [21]), 26.6 ± 1.2%; in data set [2] (setting [22]), 28.7 ± 1.2%.
With Q9BYZ8, the “percentage of EdU-negative” value is 5.55 ± 0.64% in data set [1] (protein concentration 0.02 µM), 19.9 ± 4.5% in data set [1] (protein concentration 0.2 µM), 24.8 ± 0.7% in data set [2] (protein concentration 0.02 µM) and 29.6 ± 2.5% in data set [2] (protein concentration 0.2 µM).
Q9BZP6: the “percentage of EdU-negative” value is 5.02 ± 0.9% in data set [1] (setting [23]), 6.66 ± 0.26% in data set [1] (setting [24]), 23.1 ± 1.2% in data set [2] (setting [23]) and 27.6 ± 0.63% in data set [2] (setting [24]).
Take Q9BZZ2: the “percentage of EdU-negative” value was determined as 4.58 ± 0.46% in data set [1] (setting [25]), 21.5 ± 2.5% in data set [1] (setting [26]), 26.9 ± 2.3% in data set [2] (setting [25]) and 31.1 ± 2.4% in data set [2] (setting [26]).
Take Q9HBE5: the “percentage of EdU-negative” value in data set [1] (setting [23]) is 4.85 ± 0.64%; in data set [1] (setting [24]) it was 5.88 ± 0.38%; in data set [2] (setting [23]), 24.6 ± 3%; in data set [2] (setting [24]), 26.38 ± 0.26%.
Q9NP99: the “percentage of EdU-negative” value in data set [1] (setting [3]) was 4.69 ± 0.52%; in data set [1] (protein concentration 0.225 µM), 5.446 ± 0.054%; in data set [2] (setting [3]), 25.2 ± 3.3%; in data set [2] (protein concentration 0.225 µM), 25.7 ± 1.1%.
Regarding Q9NQS3, the “percentage of EdU-negative” value in data set [1] (setting [3]) stood at 4.83 ± 1.2%; in data set [1] (protein concentration 0.225 µM) it was 4.728 ± 0.0098%; in data set [2] (setting [3]), 25.9 ± 3.8%; in data set [2] (protein concentration 0.225 µM) it was 26.1 ± 2.9%.
As for Q9UBP4, the “percentage of EdU-negative” value was 5.79 ± 1.3% in data set [1] (setting [27]), 6.35 ± 0.93% in data set [1] (setting [28]), 24.3 ± 2.6% in data set [2] (setting [27]) and 25.52 ± 0.066% in data set [2] (setting [28]).
Take Q9ULB1: the “percentage of EdU-negative” value was found to be 5.3 ± 0.36% in data set [1] (setting [29]), 9.04 ± 0.11% in data set [1] (setting [30]), 25.5 ± 2.5% in data set [2] (setting [29]) and 26.3 ± 2.4% in data set [2] (setting [30]).
Q9ULL4: the “percentage of EdU-negative” value in data set [1] (setting [31]) worked out at 5.08 ± 0.93%; in data set [1] (setting [32]), 5.74 ± 0.25%; in data set [2] (setting [31]), 23.6 ± 1.5%; in data set [2] (setting [32]), 27.8 ± 0.59%.
In the case of Q9Y6N7, the “percentage of EdU-negative” value was determined as 5.33 ± 0.86% in data set [1] (setting [3]), 5.81 ± 0.72% in data set [1] (protein concentration 0.225 µM), 27 ± 0.88% in data set [2] (setting [3]) and 25.6 ± 1.4% in data set [2] (protein concentration 0.225 µM).
